Source: patent publication US20240002500A1 (GUANGDONG FAPON BIOPHARMA, published 2024)

T1: hTIGIT-hFc (human, UniProt Q495A1 22-141)
T1 construct: also called antigen protein hTIGIT-hFc; human TIGIT recombinant protein carrying a human Fc tag; not shown: human Fc tag
T1 sequence (looked up): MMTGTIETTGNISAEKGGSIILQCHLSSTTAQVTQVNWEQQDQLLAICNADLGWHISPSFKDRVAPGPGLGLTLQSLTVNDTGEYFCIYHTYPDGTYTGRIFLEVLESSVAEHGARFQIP

T2: full-length human TIGIT on cells (human, UniProt Q495A1 22-244)
T2 construct: whole, on cells; The same protein is used for CHO-hTIGIT, PBMC and NK92-hTIGIT; the cells are named under assay; also called CHO-hTIGIT; hTIGIT
T2 sequence (looked up): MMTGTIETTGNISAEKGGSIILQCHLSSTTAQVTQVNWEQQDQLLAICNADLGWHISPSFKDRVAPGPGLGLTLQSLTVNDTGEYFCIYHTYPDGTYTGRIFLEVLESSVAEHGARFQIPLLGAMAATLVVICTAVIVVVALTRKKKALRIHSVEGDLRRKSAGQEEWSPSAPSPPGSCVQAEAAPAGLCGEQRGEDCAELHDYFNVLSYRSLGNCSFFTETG


What was measured:
hTIGIT-hFc [1] = target: T1, hTIGIT-hFc; assay: FACS blocking: hTIGIT-hFc bound on CHO-hCD112 cells, then antibody, APC anti-human IgG Fc; blocked partner CD112; unit from the x axis Log[µg/mL]
Protocol: (§1) The CHO-engineered cell CHO-hCD112 cells recombinantly expressing full-length human CD112 were counted; centrifugated at 300 g for 5 min; resuspended with an FCM buffer; and cell density was adjusted to 4E+06 cell/mL for later use. […] According to an experimental design, in each well, 50 μL of the antigen protein and 50 μL of the cell (the volume of each cell added into a 96-well V-shaped plate being 2E+05 cell/well) were respectively added in the 96-well V-shaped plate; and incubation was performed in dark on ice for 30 min. Centrifugation (300 g/5 min) was performed; supernatant was discarded; 200 μL of the FCM buffer was added for washing once; centrifugation (300 g/5 min) was performed; and the supernatant was discarded. The antibody was added to the 96-well V-shaped plate (in 100 μL/well); and incubation was performed in dark on ice for 30 min. Centrifugation (300 g/5 min) was performed; supernatant was discarded; 200 μL of the FCM buffer was added for washing once; centrifugation (300 g/5 min) was performed; and the supernatant was discarded. Secondary antibodies (APC anti-human IgG Fc, 1:500 dilution) were added to the 96-well V-shaped plate (in 100 μL/well); and incubation was performed in dark on ice for 30 min. Centrifugation (300 g/5 min) was performed; supernatant was discarded; 200 μL of the FCM buffer was added for washing once; centrifugation (300 g/5 min) was performed; and the supernatant was discarded. 100 μL of the 1×PBS was added for resuspending, and on-machine detection was performed.

hTIGIT-hFc [2] = target: T1, hTIGIT-hFc; assay: FACS blocking on CHO-hCD112 cells; span of the fitted curve, unit from the y axis
Protocol: as §1

hTIGIT-hFc [3] = target: T1, hTIGIT-hFc; assay: FACS blocking: hTIGIT-hFc bound on CHO-hCD112 cells, then antibody, APC anti-human IgG Fc; blocked partner CD112; unit as printed on the x axis, Log(uM); the method's top concentration of 20 µg/mL and the nM values of Fig. 5B speak for nM
Protocol: as §1, with “Centrifugation (300 g/5 min) was performed; supernatant was discarded; 200 μL of the FCM buffer was added for washing once; centrifugation (300 g/5 min) was performed; and the supernatant was discarded. 100 μL of the 1×PBS was added for resuspending, and on-machine detection was performed.” left out

[4] = target: T2, full-length human TIGIT on cells; assay: FACS titration on CHO-hTIGIT cells; span of the fitted curve, unit from the y axis
Protocol: The CHO-engineered cells CHO-hTIGIT cells recombinantly expressing full-length human TIGIT to be detected were counted, centrifuged at 300 g for 5 min, resuspended in an FCM buffer and cell density was adjusted to 4E+06 cell/mL for later use. A sample to be detected (including a positive control antibody and a mouse monoclonal antibody) was diluted with the FCM buffer to 20 μg/mL, and then the FCM buffer was used to perform 3× serial dilutions of 12 concentration points; and the isotype control antibody was diluted with the FCM buffer to 20 μg/mL. According to an experimental design, in each well, 50 μL of the antibody and 50 μL of the cell (the amount of each cell added into a 96-well V-shaped plate being 2E+05 cells/well) were respectively added in the 96-well V-shaped plate; and incubation in dark was performed on ice for 30 min. Centrifugation (300 g/5 min) was performed; supernatant was discarded; 200 μL of the FCM buffer was added for washing once; centrifugation (300 g/5 min) was performed; and the supernatant was discarded. […] Centrifugation (300 g/5 min) was performed; supernatant was discarded; 200 μL of the FCM buffer was added once for washing once; centrifugation (300 g/5 min) was performed; and the supernatant was discarded. 100 μL of the 1×PBS was added for resuspending, and on-machine detection was performed.

[5] = target: T2, full-length human TIGIT on cells; assay: FACS titration on PBMC of healthy people (natural TIGIT); unit taken from the x axis Log[µg/mL]; the curve still rises at the highest concentration (MFI about 11000 at log 1), no plateau, the fitted value lies outside the range shown
Protocol: (§2) In order to verify that the prepared anti-human TIGIT antibody may effectively bind to naturally expressed TIGIT, the following experiments were specifically performed. PBMC cells in healthy people to be detected were counted, centrifuged at 300 g for 5 min, resuspended with an FCM buffer; and cell density was adjusted to 4E+06 cell/mL for later use. Samples to be detected (including a positive control antibody and a mouse monoclonal antibody) were diluted with the FCM buffer to 20 μg/mL, and then the FCM buffer was used to perform 3× serial dilutions of 12 concentration points; and the isotype control antibody was diluted with the FCM buffer to 20 μg/mL. According to an experimental design, in each well, 50 μL of the antibody and 50 μL of the cell (the volume of each cell added into a 96-well V-shaped plate being 2E+05 cell/well) were respectively added in the 96-well V-shaped plate; and incubation was performed in dark on ice for 30 min. Centrifugation (300 g/5 min) was performed; supernatant was discarded; 200 μL of the FCM buffer was added for washing once; centrifugation (300 g/5 min) was performed; and the supernatant was discarded. […] Centrifugation (300 g/5 min) was performed; supernatant was discarded; 200 μL of the FCM buffer was added for washing once; centrifugation (300 g/5 min) was performed; and the supernatant was discarded. […]

[6] = target: T2, full-length human TIGIT on cells; assay: FACS titration on PBMC of healthy people (natural TIGIT); table under the plot, unit taken from the x axis Log[µg/mL]
Protocol: as §2

Row | Binder | IC50 (hTIGIT-hFc [1]) [µg/mL] | Span (hTIGIT-hFc [2]) [MFI-APC] | IC50 (hTIGIT-hFc [3]) [nM] | Span [4] [MFI-PE] | EC50 [5] [µg/mL] | EC50 [6] [µg/mL]
1 | 14Tigit-1-1 mouse monoclonal antibody (antibody, V domains shown, Mouse monoclonal antibody from hybridoma) VH: DVQLQESGPGLVKPSQSLSLTCTVTGYSITSDYAWNWIRQFPGNKLEWMGYISYSGSTRSNPSLKSRISITRDTSKNQFFLQLNSMTAEDTATYYCGGWEVRNYYAMDYWGQGTSVTVSS VL: DIVMTQSHKFMSTSVGDRVSITCKASQHVSTAVAWYQQKPGQSPKLLIYSASYRYTGVPDRFTGSGSGTDFTFTISSVQAEDLAVYYCQQHYNTPWTFGGGTKLEIKR |  |  | 2600 |  |  | 
2 | Tigit-5 mouse monoclonal antibody (antibody, V domains shown, Mouse monoclonal antibody from hybridoma) VH: QVQLQQPGAELVRPGASVKLSCKASGYSFTSYWMNWVKQRPGQGLEWIGMIRPSDSETRLNQMFKDKATLTVDKSSSTAYMQLSSPTSDDSAVYYCAGIHDYGHGAYWGQGTLVTVSA VL: DIQMIQSPASLSVSVGETVTITCRASENIYSNLAWYQQKQGKSPQLLVYAASHLPDGVPSRFSGSGSGTQYSLKINSLQSEDFGSYYCQHFWGTPRTFGGGTKLEIKR | 0.143 | 212 |  | 21000 | ~310 | 

Second part, the binder after the results:

Row | IC50 (hTIGIT-hFc [1]) [µg/mL] | Span (hTIGIT-hFc [2]) [MFI-APC] | IC50 (hTIGIT-hFc [3]) [nM] | Span [4] [MFI-PE] | EC50 [5] [µg/mL] | EC50 [6] [µg/mL] | Binder
3 | 0.191 | 278 |  |  |  |  | 3Tigit-12 mouse monoclonal antibody (antibody, V domains shown, Mouse monoclonal antibody from hybridoma) VH: QVQLQQSGAELVRPGTSVKMSCKAAGYTFTNYWIGWVKQRPGHGLEWIGDIYPGGGYTNYDEKFKGKATLTADTSSRTAYMQLSSLTSEDSAIYHCVNGGYGSTYGYFDVWGAGTTVTVSS VL: DIVMSQSPSSLPVSVGEKVTMSCKSSQSLLFSSDQKNYLAWYQQKPGQSPKLLIYWASTRESGVPDRLTGSGSGTDFTLTISSVKAEDLAVYYCQQYHKYPFTFGGGTKLEIKR
4 | 0.265 | 215 |  | 34600 |  | 0.0247 | 3Tigit-16 mouse monoclonal antibody (antibody, V domains shown, Mouse monoclonal antibody from hybridoma) VH: EVQLQQSGPELVKPGASVKMSCKASGFTFTDYFMDWVKQSRGASFEWIGRLNPNNGRTSYNQKFKGKATLTVDKSSSTAYMELNSLTSEDSAVYYCARGDLGRWYFDVWGAGTTVTVSS VL: QIVLTQSPAIMSASPGEKVTMTCSASSSVSYMHWYQQKSGTSPKRWIYDTSKLASGVPTRFSGSGSGTSYSLTISSMEAEDAASYFCQQWSSNSLTFGAGTKLELKR
5 | 0.196 | 327 |  | 30600 |  | 0.0217 | 3Tigit-29 mouse monoclonal antibody (antibody, V domains shown, Mouse monoclonal antibody from hybridoma) VH: EVQLQQSGPELVKPGASVKISCKASGYTFTDYNMHWVKQSLGKSLEWIGYVNSFNGNTGYSQKFKSKVTLTVDRSSRTAYMDLRSLTSEDSAVFYCARSSRGGFAYWGQGTLVTVSA VL: QIVLTQSPAIMSASPGEKVTMTCSASSSVSYMHWYQQKSGTSPKRWIYDTSKLASGVPARFSGSVSGTSYSLTISSMEAEDAATYYCQQWSSNSLTFGAGTKLELKR
